The values below are quoted from earlier work in publication PMC2712931.

Usually Kd stands for the concentration at which binding is half-saturated.

This series concerns the target Pex5 (UniProt P50542).

Regarding Pex14 (from UniProt O75381), the Kd was 2750 nM.
